Columns and labels:
[1] = molecular target: T1, LRRTM4 expressed on cells (human, UniProt Q86VH4 31-590); assay: flow cytometry, transfected 293T cells, 2 µg/ml
T1 construct: Clone of the Origene human cDNA library; also called Leucine rich repeat transmembrane neuronal 4

[2] = molecular target: T2, MAG expressed on cells (human, UniProt P20916 20-626); assay: flow cytometry, transfected 293T cells, 2 µg/ml
T2 construct: Clone of the Origene human cDNA library; also called Myelin associated glycoprotein; SIGLEC4A
T2 sequence: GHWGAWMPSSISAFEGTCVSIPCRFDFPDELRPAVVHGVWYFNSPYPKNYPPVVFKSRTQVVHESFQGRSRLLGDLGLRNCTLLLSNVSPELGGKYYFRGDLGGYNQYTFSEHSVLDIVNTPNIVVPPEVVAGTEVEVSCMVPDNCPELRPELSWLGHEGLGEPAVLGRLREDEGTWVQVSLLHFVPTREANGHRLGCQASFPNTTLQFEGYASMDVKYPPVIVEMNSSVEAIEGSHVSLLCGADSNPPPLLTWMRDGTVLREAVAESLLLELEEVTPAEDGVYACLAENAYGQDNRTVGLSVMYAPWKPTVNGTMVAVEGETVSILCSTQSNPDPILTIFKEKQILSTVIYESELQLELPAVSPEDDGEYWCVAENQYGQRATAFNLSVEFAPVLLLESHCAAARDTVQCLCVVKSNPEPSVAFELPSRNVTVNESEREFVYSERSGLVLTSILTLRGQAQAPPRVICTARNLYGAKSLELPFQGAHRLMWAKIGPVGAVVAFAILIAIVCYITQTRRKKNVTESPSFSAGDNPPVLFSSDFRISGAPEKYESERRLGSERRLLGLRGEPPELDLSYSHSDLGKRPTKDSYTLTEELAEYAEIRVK

[3] = molecular target: T1, LRRTM4 expressed on cells; assay: flow cytometry, transfected 293T cells, 50 µg/ml
[4] = molecular target: T2, MAG expressed on cells; assay: flow cytometry, transfected 293T cells, 50 µg/ml
[5] = molecular target: T3, human NPDC1 expressed on cells (human, UniProt Q9NQX5 35-325); assay: flow cytometry, transfected 293T cells, 50 µg/ml; 293T-Neo: 1.5
T3 construct: also called hNPDC1; hNPCD1
T3 sequence: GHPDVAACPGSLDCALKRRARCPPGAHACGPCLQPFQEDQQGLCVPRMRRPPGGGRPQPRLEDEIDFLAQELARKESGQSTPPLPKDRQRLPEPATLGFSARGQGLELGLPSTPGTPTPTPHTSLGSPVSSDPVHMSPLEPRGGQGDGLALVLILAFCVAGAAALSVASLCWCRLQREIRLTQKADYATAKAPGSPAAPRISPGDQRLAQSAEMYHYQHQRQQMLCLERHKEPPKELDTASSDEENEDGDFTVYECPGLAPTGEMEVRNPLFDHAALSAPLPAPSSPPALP

[6] = molecular target: T4, human COLEC12 expressed on cells (human, UniProt Q5KU26 1-742); assay: as above
T4 construct: also called hCOLEC12; C-terminal his tagged hCOLEC12
T4 sequence (Q5KU26 whole entry S522P/G606S): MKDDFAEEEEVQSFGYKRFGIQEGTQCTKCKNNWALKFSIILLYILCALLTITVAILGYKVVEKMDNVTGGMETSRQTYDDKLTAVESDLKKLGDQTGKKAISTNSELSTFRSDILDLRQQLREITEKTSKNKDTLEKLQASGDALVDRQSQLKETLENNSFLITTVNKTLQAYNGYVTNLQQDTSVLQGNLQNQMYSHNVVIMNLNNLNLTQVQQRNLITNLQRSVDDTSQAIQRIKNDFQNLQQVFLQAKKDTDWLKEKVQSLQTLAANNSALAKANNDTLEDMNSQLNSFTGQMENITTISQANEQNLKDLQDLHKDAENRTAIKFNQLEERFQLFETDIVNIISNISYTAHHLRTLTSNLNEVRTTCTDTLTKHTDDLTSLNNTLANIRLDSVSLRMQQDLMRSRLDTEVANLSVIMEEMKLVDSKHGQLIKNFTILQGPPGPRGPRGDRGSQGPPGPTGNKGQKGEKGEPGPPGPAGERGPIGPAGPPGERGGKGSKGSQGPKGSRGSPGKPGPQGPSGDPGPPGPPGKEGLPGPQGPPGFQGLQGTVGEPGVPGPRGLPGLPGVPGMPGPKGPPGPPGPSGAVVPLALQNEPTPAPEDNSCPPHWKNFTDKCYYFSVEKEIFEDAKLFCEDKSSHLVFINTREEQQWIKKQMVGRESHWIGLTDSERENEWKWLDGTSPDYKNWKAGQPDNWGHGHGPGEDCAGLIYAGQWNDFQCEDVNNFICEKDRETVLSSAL

[7] = molecular target: T5, mouse CD99 expressed on 293T cells (mouse, UniProt Q8VCN6 29-175, sialylated O-glycans at Thr-45 and Thr-50 (cited as relevant for PILRα recognition)); assay: as above
T5 construct: whole, on cells; also called mCD99; mCD99 transfectants
T5 sequence (looked up): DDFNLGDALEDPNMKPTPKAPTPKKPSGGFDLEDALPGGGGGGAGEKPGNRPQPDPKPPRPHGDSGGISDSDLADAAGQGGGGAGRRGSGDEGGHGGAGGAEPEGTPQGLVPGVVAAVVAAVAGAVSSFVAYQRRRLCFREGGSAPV

[8] = molecular target: T6, IL-2Ra expressed on cells (human, UniProt P01589 22-272); assay: flow cytometry, transfected 293T cells, 50 µg/ml
T6 construct: Clone of the Origene human cDNA library; also called Interleukin 2 receptor alpha
T6 sequence: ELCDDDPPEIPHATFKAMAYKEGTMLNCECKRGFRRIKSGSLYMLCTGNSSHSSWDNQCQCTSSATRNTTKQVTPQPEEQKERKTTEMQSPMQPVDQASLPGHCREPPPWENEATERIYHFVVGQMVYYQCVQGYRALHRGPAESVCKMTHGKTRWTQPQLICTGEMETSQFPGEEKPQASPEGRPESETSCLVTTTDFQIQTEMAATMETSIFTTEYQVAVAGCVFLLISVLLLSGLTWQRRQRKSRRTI

[9] = molecular target: T7, BR3 expressed on cells (human, UniProt Q96RJ3 1-184); assay: flow cytometry, transfected 293T cells, 50 µg/ml
T7 construct: Clone of the Origene human cDNA library
T7 sequence: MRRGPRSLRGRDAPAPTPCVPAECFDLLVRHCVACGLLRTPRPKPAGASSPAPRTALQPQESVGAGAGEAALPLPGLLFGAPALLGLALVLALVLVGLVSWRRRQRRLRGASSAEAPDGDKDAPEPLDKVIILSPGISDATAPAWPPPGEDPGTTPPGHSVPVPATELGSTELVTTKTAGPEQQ

[10] = molecular target: T8, PSS8 expressed on cells (human, UniProt Q16651 30-343); assay: flow cytometry, transfected 293T cells, 50 µg/ml
T8 construct: Clone of the Origene human cDNA library; also called Protease serine 8; prostasin
T8 sequence (Q16651 30-343 limits assumed): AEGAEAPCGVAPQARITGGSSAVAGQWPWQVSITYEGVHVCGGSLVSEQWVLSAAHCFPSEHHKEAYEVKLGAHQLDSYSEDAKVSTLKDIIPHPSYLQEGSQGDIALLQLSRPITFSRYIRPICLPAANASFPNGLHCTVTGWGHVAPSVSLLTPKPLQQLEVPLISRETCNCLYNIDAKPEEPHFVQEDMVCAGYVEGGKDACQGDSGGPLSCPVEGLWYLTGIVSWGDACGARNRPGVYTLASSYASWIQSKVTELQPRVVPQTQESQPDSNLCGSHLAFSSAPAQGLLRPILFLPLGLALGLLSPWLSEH

[11] = molecular target: T9, hCOLEC12-his (human, UniProt Q5KU26 59-742, sialylated O-glycans and N-glycans); assay: SPR equilibrium binding analysis, hCOLEC12 immobilised
T9 construct: Whole entry named; also called human COLEC12-his; hCOLEC12 (SPR); not shown: his tag
T9 sequence (Q5KU26 59-742 S522P/G606S limits assumed): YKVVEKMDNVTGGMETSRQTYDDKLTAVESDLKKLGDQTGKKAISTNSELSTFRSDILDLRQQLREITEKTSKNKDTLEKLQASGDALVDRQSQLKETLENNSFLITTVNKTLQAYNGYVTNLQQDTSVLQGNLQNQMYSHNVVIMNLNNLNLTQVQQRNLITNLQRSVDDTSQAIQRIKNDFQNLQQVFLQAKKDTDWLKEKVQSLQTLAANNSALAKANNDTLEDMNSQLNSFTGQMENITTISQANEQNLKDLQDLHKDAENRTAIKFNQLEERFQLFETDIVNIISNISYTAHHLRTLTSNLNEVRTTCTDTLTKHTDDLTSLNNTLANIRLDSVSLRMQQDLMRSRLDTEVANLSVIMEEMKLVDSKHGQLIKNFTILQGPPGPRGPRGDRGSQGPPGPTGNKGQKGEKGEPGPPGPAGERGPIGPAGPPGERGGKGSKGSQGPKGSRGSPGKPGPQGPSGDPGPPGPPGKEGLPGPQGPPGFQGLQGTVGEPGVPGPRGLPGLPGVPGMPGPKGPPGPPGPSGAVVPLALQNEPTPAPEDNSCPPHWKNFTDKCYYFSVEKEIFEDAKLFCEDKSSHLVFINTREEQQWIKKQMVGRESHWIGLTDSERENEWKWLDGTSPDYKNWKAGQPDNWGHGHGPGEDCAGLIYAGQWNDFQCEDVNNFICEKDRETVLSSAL

[12] = molecular target: T3, human NPDC1 expressed on cells; assay: flow cytometry, transfected 293T cells, 2 µg/ml; 293T-Neo: 0.013
[13] = molecular target: T4, human COLEC12 expressed on cells; assay: as above
[14] = molecular target: T5, mouse CD99 expressed on 293T cells; assay: as above
[15] = molecular target: T6, IL-2Ra expressed on cells; assay: flow cytometry, transfected 293T cells, 2 µg/ml
[16] = molecular target: T7, BR3 expressed on cells; assay: flow cytometry, transfected 293T cells, 2 µg/ml
[17] = molecular target: T8, PSS8 expressed on cells; assay: flow cytometry, transfected 293T cells, 2 µg/ml
[18] = molecular target: T3, human NPDC1 expressed on cells; assay: equilibrium competition radioligand assay: 125I-hPILRα-Fc against unlabeled hPILRα-Fc on 293T cells transiently expressing hNPDC1; average of two replicate assays
From the text: Binding to mock transfectants (grey area) represents background binding. Transfected ligand expressing cells were gated and their binding to PILRα-Fc was shown. […] Binding to mock transfectants (grey area) represents background binding. PILRα positive cells were gated and ligand fusion staining was shown.

T1 sequence (Q86VH4 31-590 limits assumed): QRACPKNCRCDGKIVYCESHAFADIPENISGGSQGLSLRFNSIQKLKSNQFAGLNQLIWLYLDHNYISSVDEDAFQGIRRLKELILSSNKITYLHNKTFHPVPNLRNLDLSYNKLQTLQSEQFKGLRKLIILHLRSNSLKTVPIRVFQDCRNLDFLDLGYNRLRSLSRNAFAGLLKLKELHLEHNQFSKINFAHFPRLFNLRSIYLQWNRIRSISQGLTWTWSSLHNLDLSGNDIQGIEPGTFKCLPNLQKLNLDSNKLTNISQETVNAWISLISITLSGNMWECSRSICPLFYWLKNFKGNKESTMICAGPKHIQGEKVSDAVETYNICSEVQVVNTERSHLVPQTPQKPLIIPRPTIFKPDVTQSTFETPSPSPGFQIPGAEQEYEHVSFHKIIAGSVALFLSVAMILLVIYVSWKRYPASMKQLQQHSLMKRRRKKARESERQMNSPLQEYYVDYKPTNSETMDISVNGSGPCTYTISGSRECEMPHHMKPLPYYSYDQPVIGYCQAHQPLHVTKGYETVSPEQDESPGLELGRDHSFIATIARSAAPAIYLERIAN

B1: hPILRα-Fc (Fc fusion)
chain: QPSGSTGSGPSYLYGVTQPKHLSASMGGSVEIPFSFYYPWELATAPDVRISWRRGHFHRQSFYSTRPPSIHKDYVNRLFLNWTEGQKSGFLRISNLQKQDQSVYFCRVELDTRSSGRQQWQSIEGTKLSITQAVTTTTQRPSSMTTTWRLSSTTTTTGLRVTQGKRRSDSWHISLETA
notes: also called human PILRα-Fc; WT hPILRα-Fc; not shown: Fc of mouse IgG2a (PILRα-mIgG2a, called PILRα-Fc)
% cells in lower right quadrant [1]: 11.7%
% cells in lower right quadrant [2]: 2.31%
% cells in lower right quadrant [3]: 46%
% cells in lower right quadrant [4]: 36.8%
% cells in lower right quadrant [5]: 68.8%
% cells in lower right quadrant [6]: 42%
% cells in lower right quadrant [7]: 70.8%
% cells in lower right quadrant [8]: 64.4%
% cells in lower right quadrant [9]: 67.3%
% cells in lower right quadrant [10]: 81%
Kd [11]: 1100 nM
% cells in lower right quadrant [12]: 27.8%
% cells in lower right quadrant [13]: 0.014%
% cells in lower right quadrant [14]: 23.4%
% cells in lower right quadrant [15]: 6.39%
% cells in lower right quadrant [16]: 31.5%
% cells in lower right quadrant [17]: 18.7%
Kd [18]: 49 nM
